Assay [1] addresses SARS-CoV-2 RBD (residues 332-527), Lambda variant (SARS-CoV-2, Lambda (C.37), L452Q | F490S).
Assay [2] has as its target SARS-CoV-2 RBD (residues 332-527), BQ.1.1 variant (SARS-CoV-2, Omicron BQ.1.1, R346T | K444T | N460K).

B1: R1-32-Q61E-WT (antibody, V domains shown)
VH: EVQLVQSGAEVKKPGSSVKVSCKASGGTFSSYFISWVRQAPGQGLEWMGGIIPILGIADYAEKFQGRVTITADKSTSTAYMELSSLRSEDTAVYYCARENGYSGYGAAYNFDLWGRGTLVTVSS
VL: QSVLTQPPSVSGAPGQRVTISCTGSDSNIGAGYDVHWYQQLPGTAPKLLIYGNSNRPSGVPDRFSGSKSGTSASLAITGLQAEDEADYYCQSYDSSLSGSVFGGGTKLTVL
As to B1, the binding result in assay [1] and in assay [2] was “binds” throughout.

The record behind these values is article doi:10.1101/2025.09.12.675771 (bioRxiv, 2025).
